Assay results taken from PMC2965066 (Science (New York, N.Y.), 2010).

Legend:
YU2 gp120 [1] = molecular target: T1, YU2 gp120 (HIV-1 (strain YU2), UniProt P35961); assay: ELISA
YU2 gp120 [2] = molecular target: T1, YU2 gp120; assay: SPR

B1: VRC03 (antibody, V domains shown)
VH: QVQLVQSGAVIKTPGSSVKISCRASGYNFRDYSIHWVRLIPDKGFEWIGWIKPLWGAVSYARQLQGRVSMTRQLSQDPDDPDWGVAYMEFSGLTPADTAEYFCVRRGSCDYCGDFPWQYWGQGTVVVVSS
VL: EIVLTQSPGILSLSPGETATLFCKASQGGNAMTWYQKRRGQVPRLLIYDTSRRASGVPDRFVGSGSGTDFFLTINKLDREDFAVYYCQQFEFFGLGSELEVH
binding result (YU2 gp120 [1]): binds
Kd (YU2 gp120 [2]): 73.1 nM
